The values that follow come from US12312397B2, “Anti-O2 antibodies and uses thereof” (priority 2016, dated 2025).

The subject of assay [1] is O2 LPS activation of NF-κB in RAW264.7-lux cells. The assay is described as follows: LPS neutralization assay (NF-κB luciferase, RAW264.7-lux), O2 LPS. The assay is classed as cell-based, murine. In short, it runs like this:
(§1)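 Serially diluted mAbs (human IgG1) pre-mixed 1:1 with LPS at 4 °C for 1 hr, then diluted 1:10 onto RAW264.7-lux cells carrying an NF-κB-driven firefly luciferase; 2.5 h at 37 °C. Luminescence read; % inhibition relative to no-antibody and negative-control mAb wells.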

Assay [2] has as its system O1 LPS activation of NF-κB in RAW264.7-lux cells. Briefly: LPS neutralization assay (NF-κB luciferase, RAW264.7-lux), O1 LPS. The assay is classed as cell-based, murine. In short, it runs like this: as §1
The subject of assay [3] is K. pneumoniae 8570ΔcpsBLux (O2). The assay is described as follows: Opsonophagocytic killing (OPK) assay, O2 capsule mutant. It counts as cell-based, Klebsiella pneumoniae. More on the design: key to D Capsule OPK O2: +++: Strongly positive activity; +: Positive activity; +/−: Somewhat positive depending upon the test conditions. To be noted: capsule mutant strain 8570ΔcpsB lux (O2). In short, it runs like this:
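Luminescent capsule-deficient K. pneumoniae strains were mixed with DMF-differentiated HL-60 cells, 1:10 baby rabbit serum and anti-O2 LPS mAbs (2 ng–2.5 μg/mL), then shaken for 2 h at 37 °C. Killing % came from luminescence (RLU) against no-antibody and negative-control mAb wells, with >40% scored as positive.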

The next assay has as its system KPC strain Kp961842_O2. The assay is described as follows: Lethal pneumonia model, KPC strain Kp961842_O2. It counts as in vivo, Klebsiella pneumoniae. The settings on record: C57/BL6 mice, 2e8 CFU; mAb 2 mg/kg 1 hour post infection; survival. Here is the method: (§2) C57/BL6 mice were obtained from Jackson Laboratories and maintained in a special pathogen-free facility. All animal experiments were conducted in accordance with Institutional Animal Care and Use Committee (IACUC) protocol and guidance. K. pneumoniae strains were grown on agar plates overnight and diluted in saline at proper concentration. The inoculum titer was determined by plating a serial dilution of bacteria onto agar plates prior to and post challenge. In acute pneumonia models, C57/BL6 mice were inoculated with 1e4 to 2e8 colony-forming units (CFU) of K. pneumoniae clinical isolates in 50 μl saline intranasally. Anti-K pneumoniae monoclonal antibodies (mAbs) and human IgG1 control antibodies were given 1-24 hour post bacterial challenge (therapeutic dosing). Mouse survival was monitored daily until up to day 8. Survival data of representative experiments were plotted in Graphpad Prism software.
(§3) Mice were challenged with 2e8 CFU of Klebsiella pneumoniae Carbanpenemase (KPC) strain Kp961842_O2 or with 3e8 CFU of KPC strain Kp977778_O2, followed by the administration of anti-O2 mAbs. When administered at a concentration of 2 mg/kg 1 hour post bacterial infection, Class III anti-O2 LPS mAbs KPN42, KPN179-IgG1, and KPS44v2017 protected mice from lethal bacterial challenge with the multi-drug resistant KPC strains Kp961842_O2 (FIG. 6, left panel, and FIG. 10) and Kp977778_O2 (FIG. 6B, right panel).

A further assay relates to KPC strain Kp977778_O2. Briefly: Lethal pneumonia model, KPC strain Kp977778_O2. The assay is classed as in vivo, Klebsiella pneumoniae. To be noted: C57/BL6 mice, 3e8 CFU; mAb 2 mg/kg 1 hour post infection; survival. As for the experimental part: as §2, §3
A further assay concerns K. pneumoniae O1/O2. The assay is described as follows: Mouse protection models (O1/O2), Table 7 summary. It counts as in vivo, Klebsiella pneumoniae. Further details: key: +++: Strongly positive activity; +: Positive activity; +/−: Somewhat positive depending upon the test conditions. The settings on record: mouse pneumonia models. Here is the method:
As described in more detail in below, anti-O2 LPS mAbs were tested for: 1) binding to O1 and O2 LPS (see Example 5); 2) LPS neutralization (LPS-Neut) against O1 and O2 LPS (see Example 7); 3) OPK against capsule mutant strain 43816ΔcpsB lux (O1) and 8570ΔcpsB lux (O2) (see Example 8); and 4) protective activity in pneumonia models (see Example 9). O2 LPS mAbs were subsequently divided into three classes based on their in vitro activities. Class I mAbs were characterized as Binding (O1+O2+)/OPK (O1−O2+); Class 2 mAbs were characterized as Binding (O1+O2+)/OPK (O1+O2+); and Class III mAbs were characterized as Binding (O1±O2+)/OPK (O1−O2+).
as §2, with “Anti-K pneumoniae monoclonal antibodies (mAbs) and human IgG1 control antibodies were given 1-24 hour post bacterial challenge (therapeutic dosing).” left out, “Survival data of representative experiments were plotted in Graphpad Prism software.” left out

B1: KPN70: Class I anti-O2 antigen human mAb; VH SEQ ID NO: 44, VL SEQ ID NO: 45 (antibody, V domains shown)
VH: QVQLQESGPGLVKPSETLSLTCTVSGGSISTYYWNWIRQSPGKELEWIANIHQSGTTYYNPSLKSRVTMSVDTSKNQFSLKVISVTAADTAVYYCARESDDGYKWNYFDYWGQGTLVTVSS
VL: EIVLTQSPASLSLSPGERATLSCRASQIVTNYLAWYQHKPGQAPRLLIFDMSIRAAGIPARFSGSGSGTDFTLTISSLEPEDFAVYYCQHRSNWPLFTFGPGTKVDIK
modifications: Description of Artificial Sequence: SyntheticKPN70 VH polypeptide; Description of Artificial Sequence: SyntheticKPN70 VL polypeptide
As for B1, the “neutralizing activity against O2 LPS (NF-κB activation)” value in assay [1] (human IgG1 format) is “blocked”. For the same molecule, in assay [1] (secondary screening), the “neutralization of LPS-O2” value is on record as “neutralize”. The “neutralizing activity against O1 LPS (NF-κB activation)” value in assay [2] (human IgG1 format) was “blocked”. In assay [2] (secondary screening), the “neutralization of LPS-O1” value was “neutralize”. The “D Capsule OPK O2” value in assay [3] is recorded as “+++”. Further, in the assay with KPC strain Kp961842_O2, the “protection from lethal bacterial challenge, Kp961842_O2” value is given as “did not protect”. Besides, the “protection from lethal bacterial challenge, Kp977778_O2” value with KPC strain Kp977778_O2 is listed as “did not protect”. Further, the “Mouse protection models (O1/O2)” value in the assay on K. pneumoniae O1/O2 was “+/−”.
